Test results as given in doi:10.1101/2024.09.24.614577 (bioRxiv, 2024).

Target: the molecule itself
Test: cryo-EM structure

B1: human GPR155 (residues 1-870), construct without the eGFP tag (receptor, UniProt Q7Z3F1 1-870, looked up)
chain: MNSNLPAENLTIAVNMTKTLPTAVTHGFNSTNDPPSMSITRLFPALLECFGIVLCGYIAGRANVITSTQAKGLGNFVSRFALPALLFKNMVVLNFSNVDWSFLYSILIAKASVFFIVCVLTLLVASPDSRFSKAGLFPIFATQSNDFALGYPIVEALYQTTYPEYLQYIYLVAPISLMMLNPIGFIFCEIQKWKDTQNASQNKIKIVGLGLLRVLQNPIVFMVFIGIAFNFILDRKVPVYVENFLDGLGNSFSGSALFYLGLTMVGKIKRLKKSAFVVLILLITAKLLVLPLLCREMVELLDKGDSVVNHTSLSNYAFLYGVFPVAPGVAIFATQFNMEVEIITSGMVISTFVSAPIMYVSAWLLTFPTMDPKPLAYAIQNVSFDISIVSLISLIWSLAILLLSKKYKQLPHMLTTNLLIAQSIVCAGMMIWNFVKEKNFVGQILVFVLLYSSLYSTYLWTGLLAISLFLLKKRERVQIPVGIIIISGWGIPALLVGVLLITGKHNGDSIDSAFFYGKEQMITTAVTLFCSILIAGISLMCMNQTAQAGSYEGFDQSQSHKVVEPGNTAFEESPAPVNEPELFTSSIPETSCCSCSMGNGELHCPSIEPIANTSTSEPVIPSFEKNNHCVSRCNSQSCILAQEEEQYLQSGDQQLTRHVLLCLLLIIGLFANLSSCLWWLFNQEPGRLYVELQFFCAVFNFGQGFISFGIFGLDKHLIILPFKRRLEFLWNNKDTAENRDSPVSEEIKMTCQQFIHYHRDLCIRNIVKERRCGAKTSAGTFCGCDLVSWLIEVGLASDRGEAVIYGDRLVQGGVIQHITNEYEFRDEYLFYRFLQKSPEQSPPAINANTLQQERYKEIEHSSPPSHSPKT
For B1, the “stoichiometry N” value was 2.
